# Entries after “also recorded” stand apart in the source; their conditions may differ.
# T1: CCX CKR (Homo sapiens, UniProt Q9NPB9)
# T1 construct: Full length CCX CKR expression constructs were made in pIRESpuro expression vector; expressed in transfected cells
# T1 sequence (Q9NPB9 1-350): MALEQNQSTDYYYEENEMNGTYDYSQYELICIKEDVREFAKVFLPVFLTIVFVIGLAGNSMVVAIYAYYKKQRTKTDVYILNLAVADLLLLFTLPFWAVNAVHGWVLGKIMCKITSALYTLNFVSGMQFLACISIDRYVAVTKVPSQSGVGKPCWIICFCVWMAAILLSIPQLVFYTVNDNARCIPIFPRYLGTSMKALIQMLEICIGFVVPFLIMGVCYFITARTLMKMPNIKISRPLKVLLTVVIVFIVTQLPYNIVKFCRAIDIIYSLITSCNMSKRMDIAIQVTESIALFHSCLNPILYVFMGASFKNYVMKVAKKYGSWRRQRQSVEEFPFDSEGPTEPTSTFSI
# Key:
# CCX CKR [1] = molecular target: T1, CCX CKR; test: Adhesion of HEK293-CCX CKR cells to immobilized ELC-stalkokine and competition by soluble chemokines; type: cell-based; conditions: 5-10 ug/ml soluble recombinant chemokine as competitor
# Text: “Stalkokine” technology was used to :identify the chemokines bound by the CCX CKR. Briefly, immobilized native chemokines alone are incapable of capturing cells bearing cognate receptors (Imai et al., 1997, Cell 91:521). We have developed non-native chemokine structures, stalkokines, comprising chemokine moieties engineered as N-terminal attachments to extended modified mucins (Bazan et al., 1997, Nature 385:640). In one embodiment, stalkokines, harvested in the supernatants of HEK293 cells after transient transfection, are anchored to solid substrates via antibodies against carrier domains (e.g. poly-His epitopes) engineered to the carboxyl terminus, leaving the chemokine domain free to interact with candidate orphan receptors.
# To determine ligand binding to CCX CKR, HEK293-CCX CKR cells were used to interrogate chemokine ‘stalkokines’ (SK), i.e., molecules in which discrete chemokine domains were engineered to be tethered to the end of an extended stalk structure. […] In all cases, nonadherent cells were removed by washing in PBS; remaining adherent cells were fixed with 1% glutaraldehyde, photoimaged and counted. […]
# CCX CKR [2] = molecular target: T1, CCX CKR; test: Ligand binding fingerprint: displacement of 125I-ELC from CCX CKR stable transfectants by cold chemokines; conditions: cold competitor 200 nM; human and murine ELC, SLC, TECK; comparable with 125I-TECK
# Text: (§1) In one embodiment, binding is detected as described by Dairaghi et al., 1997, J. Biol. Chem. 272:28206-209 (incorporated by reference in its entirety for all purposes) substituting CCX CKR transfectants for the CCR3 transfectants). In one embodiment, binding is detected using the filter based technique described by Dairaghi et al., 1999, J. Biol. Chem. 274:2156 (incorporated by reference in its entirety for all purposes), e.g., as shown in FIG. 4. Briefly, this technology employs expanded, efficiency-maximized radioligand binding utilizing filtration protocols. In these assays, 1×10^5 CCXCKR-293 HEK cells are incubated with […] (MlP3beta) (final concentration of ˜0.05 nM) in the presence of unlabeled chemokine for 3 h at 4° C. in 25 mM HEPES, 140 mM NaCl, 1 mM CaCl2, 5 mM MgCl2, and 0.2% bovine serum albumin, adjusted to pH 7.1. Reactions were aspirated onto PEI-treated GF/B glass filters using a cell harvester (Packard). Filters are washed twice (25 mM HEPES, 500 mM NaCl, 1 mM CaCl25 mM MgCl2, adjusted to pH 7.1) and scintillant (e.g., MicroScint 20; 50 μl) is added to dried filters and counted (e.g., using a Packard Topcount scintillation counter). The competition dose-response curves is analyzed by standard methods to determine IC50 values (e.g., using GraphPad Prism software (San Diego, Calif.)). Additionally, a Scatchard transformation can be used to estimate the receptor sites per cell (e.g., using WaveMetrics Igor software (Lake Oswego, Oreg.)).
# In order to rapidly and thoroughly define a given chemokine receptor's ligand binding fingerprint, we have established an approach to comprehensively profile chemokine receptors using a large array of purified chemokines and chemokine variants. We used this approach to confirm independently the interaction of ELC and other chemokines with CCX CKR. Employing radioligand binding of ^125I-labeled-ELC or ^125I-TECK to CCX CKR stable transfectants, chemokine specificity for the new receptor was determined.
# (§2) Binding analysis was carried out using efficiency-maximized radioligand binding utilizing filtration protocols designated “Displace Max” (Dairaghi et al., 1999, J Biol. Chem. 274:21569). In these assays, DisplaceMax employed the simultaneous interrogation of CCX CKR transfectants by >80 distinct purified chemokines in the ability to displace radiolabeled ELC or TECK, using the protocol described (Dairaghi et al., 1999, J Biol. Chem. 274:21569).
# CCX CKR [3] = molecular target: T1, CCX CKR; test: Radioligand binding competition with Scatchard transformation (binding constants); conditions: for Affinity class of CCX CKR ligands (summary of Examples 4-6): summary statement
# Text: as §1, §2
# The binding interactions identified in the primary screen were examined quantitatively by extensive radioligand binding competition to CCX CKR stable transfectants and Scatchard transformation of the displacement data (FIG. 4B). […] In each case, the murine versions of these chemokines also bound, and with even greater affinity; the apparent Kd's are listed in FIG. 4B. […] In similar experiments, murine CTACK bound the receptor with a Kd of ˜9 nM (not shown). CTACK is also referred to as CCL27, ALP, ILC, and ESkine.
# CCX CKR [4] = molecular target: T1, CCX CKR; test: Preliminary chemotaxis analysis of CCX CKR transfectants; type: cell-based; conditions: preliminary chemotaxis analyses, not shown
# CCX CKR [5] = molecular target: T1, CCX CKR; test: Ligand induced internalization of CCX CKR in 293 F-CCR10 cells (FACS, anti-Flag); type: cell-based; conditions: 100 nM chemokine, 37° C., 15 or 45 minutes
# Description: 293 cells transfected with the Flag-CCX CKR fusion plasmid (i.e., “293 F-CCR10 cells;” see Example 3) were incubated at 37° C. with varying concentrations of chemokines (ELC, SLC, TECK, murine CTACK and MCP4) for 15 or 45 minutes. Following incubation, the cells were washed and fixed with 3% paraformaldehyde for 15 minutes on ice. The cells were stained with anti-Flag M1 antibody, followed by a PE-conjugated anti-mouse secondary antibody. FACS analysis were then carried out to determine surface expression of the receptor.
# Results: A reduction in antibody binding in the presence of ligand is an indication of ligand-induced internalization of the receptor.
# CCX CKR [6] = molecular target: T1, CCX CKR; test: Homologous competition binding of radiolabeled chemokine on HEK293-CCX CKR cells; conditions: data not shown
# Text: Furthermore ELC-SK mediated adhesion was abolished in the presence of soluble native ELC as a competitor (FIG. 3A, top row). […] Moreover, radiolabeled ELC was used in a traditional homologous competition assay in the presence of increasing concentrations of unlabeled ELC. […] Taken together, the stalkokine-based adhesion and radiolabeled ligand binding/homologous competition assays indicate that CCX CKR is a new chemokine receptor that bound a novel compliment of chemokines.
Molecule,Effect of soluble chemokine on ELC-SK mediated adhesion of HEK293-CCX CKR cells (CCX CKR [1]),Binding to CCX CKR by displacement of 125I-labeled ELC (CCX CKR [2]),Affinity class of CCX CKR ligands (summary of Examples 4-6) (CCX CKR [3]),Migration of CCX CKR transfectants in response to chemokine (CCX CKR [4]),Internalization of the receptor (CCX CKR [5]),Homologous competition of radiolabeled TECK with cold TECK (CCX CKR [6]),"Affinity for CCX CKR in multipoint competition, in words (CCX CKR [3]; competition against 125I-ELC)"
"SLC: secondary lymphoid-tissue chemokine, recombinant (protein) SDGGAQDCCLKYSQRKIPAKVVRSYRKQEPSLGCSIPAILFLPRKRSQAELCADPKELWVQQLMQHLDKTPSPQKPAQGCRKDRGASKTGKKGKGSKGCKRTERSQTPKGP",ablation of adhesion; also recorded: significant reduction,bound well,high affinity,moderate migration,Internalization of the receptor was observed,,
"TECK: thymus expressed chemokine, recombinant (protein) QGVFEDCCLAYHYPIGWAVLRRAWTYRIQEVSGSCNLPAAIFYLPKRHRKVCGNPKSREVQRAMKLLDARNKVFAKLHHNTQTFQAGPHAVKKLSSGNSKLSSSKFSNPISSSKRNVSLLISANSGL",ablation of adhesion; also recorded: significant reduction,bound well,high affinity,,Internalization of the receptor was observed,Nearly identical results,
mMIP-1gamma: murine chemokine MIP-1γ (CCF18) (protein) QITHATETKEVQSSLKAQQGLEIEMFHMGFQDSSDCCLSYNSRIQCSRFIGYFPTSGGCTRPGIIFISKRGFQVCANPSDRRVQRCIERLEQNSQPRTYKQ,,moderately,lower affinity,,,,
vMIPII: virally-encoded chemokine from the human Kaposi's sarcoma herpesvirus HHV8 (protein) LGASWHRPDKCCLGYQKRPLPQVLLSSWYPTSQLCSKPGVIFLTKRGRQVCADKSKDWVKKLMQQLPVTAR,,lower affinity,lower affinity,,,,moderate to low affinity
"murine CTACK: murine chemokine CTACK, also referred to as CCL27, ALP, ILC, and ESkine (protein) LPLPSSTSCCTQLYRQPLPSRLLRRIVHMELQEADGDCHLQAVVLHLARRSVCVHPQNRSLARWLERQGKRLQGTVPSLNLVLQKKMYSHPQQQN",,,high affinity,,Internalization of the receptor was observed,,
